Key:
YC-PDlim2 (human) = YC-PDlim2 (human) (UniProt Q96JY6); assay: split reporter (BiFC, NanoBiT)
[1] = target: PDlim2 fused with the GAL4 DNA-binding domain (pBind-PDlim2) (human) (UniProt Q96JY6); assay: two-hybrid
[2] = target: T1, PDlim2 PDZ domain (residues 1-83) (human, UniProt Q96JY6 1-83); assay: crystal structure; settings: both partners purified
T1 construct: also called PDZ region (1-83) of PDlim2
T1 sequence (looked up): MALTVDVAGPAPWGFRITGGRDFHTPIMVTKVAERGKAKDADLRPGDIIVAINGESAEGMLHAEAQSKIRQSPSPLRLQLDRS

YN-HN12-NS1 wt (natural protein) gave a mean fluorescence intensity (MFI) (YC-PDlim2 (human)) of 1120 and a percent of cells in the high fluorescence zone (YC-PDlim2 (human)) of 10.9%.

For “HN12-NS1 fused with the VP16 transcription activation domain (pACT-NS1) (natural protein)”, the relative luciferase activity (firefly/Renilla) [1] was 160 RLU.

TIESEV [C-terminal hexapeptide of HN12-NS1 (TIESEV)]: binds [2].
